B1: PRT-535 (protein)
chain: MANQEIRYSGDSEWANKKVWVYGITPPEEKAWFYSTYYLPWKKEYGWYDCNKRNPTADGMMCWAATASNLMHWWIAQNKEYIDLYGDKYKGPDKINFNGEQMFDVKEYIDPLDKPQESDIFQCFIDKAFADLSTKHEAGKGDEGINWFIHGIIPSYPAHGPTPVKLRYPYNPAGYFKDVFPRGDGVVLLGNNGDFKELGKERFNETIKDALANKKGIGLSIGPVNVRSSHVVTMWGAEFDENGDVSYIYMADNNDRWGVGCIRYQIVYVEGGTYTCYKTEIIGSDRPIPINRLVTLELGEEYWKQTNLEHHHHHH
B2: PRT-530 (protein)
chain: MANQEIRYSEETPKTITSVWTKGVTPPTDFIQNEDVLHAPYIANQGWYDITKTFNGKDDLLCGAATAGNMLHWWFDQNKEEIENYLKKHPEKQKINFNGEQMFDVKEAIDTKDSQTDSALFEYFKDKAFPYLSTKHLGVMPDLVLDMFINGYYLSVGKHGPTPVKRGTKDPRGGIFDAVFTRGDQSKLLTARHDFKEKTLNEISDLIKQELTEGKALALSHTYANVRINHVINLWGADFNSEGNLEAIYVTDSDSNASIGMKKYYVGVNAAGKVAISAKEIEGDNIGAQVLGLFTLSTGQDIWEQTNLEHHHHHH
B3: PRT-540 (protein)
chain: MANQEIRYSKNENPNVTIKWVHGIGEPTQAEKEKIEFYWYETNTTKFFNNRKVTHLGDSNQCWAKTASNMLHWWFVQNKENINKYIEKKNITGKINFNGEQMFDVKEGIDDNQEKEKSYIANTFRTKKAHNLSTKHKGDYIINGLAWYLYGLNNFKNAHGPTPVKKKPKFYGPALFKDVFNRGDGNTPIIEETDFKEYTKKEFEDTLSEALDSKKAIGINIYGSNVDYGHAITLWGAAFDEDENIIAIYVVDNNFKFENRIFPYGIWYEKEGRPYLFNYEINSFVKNRYVGEITTLDKGEAQWQETNLEHHHHHH
B4: PRT-287 (protein)
chain: MVTSVWTKGVTPPAKFTQGEDVFHAPYVANQGWYDITKEFNGKDDLLCGAATAGNMLHWWFDQNKEKIEAYLKKHPDKQKIMFGDQELLDVRKVINTKGDQTNSELFNYFRDKAFPNLSARRIGVMPDLVLDMFINGYYLNVYKTQTTDVNRTYQEKDRRGGIFDAVFTRGDQSKLLTSRHDFKEKNLKEISDLIKKELTEGKALGLSHTYANVRIGHVINLWGADFDSNGNLKAIYVTDSDSNASIGMKKYGVGVNSAGKVAISAKEIKEDNIGAQVLGLFTLSTGQDSWNQTN
B5: PRT-562 (protein)
chain: MANQEIRYSKATPSHITSVWTKGVTPPEQFIQNEDVLHAPYIANQGWYDITKTFNGKDDLLCGAATAGNMLHWWFDQNKEQIENYLKKHPEKQKINFNGEQMFDVKEAIDTKDSQTNSALFSYFKDKAFPYLSTKHLGVFPDHVIDMFINGYRLSLTNHGPTPVKEQTKDPRGGIFDAVFTRGDQSKLLTSRHDFKEKTLNEISQLIKQELTEGKALGLSHTYANVRINHVINLWGADFNAEGNLEAIYVTDSDSNASIGMKKYYVGVNSAGKVAISAKEIEGDNIGAQVLGLFTLSTGQDIWQQTNLEHHHHHH
B6: PRT-41 (protein)
chain: MANQEIRYSEVTPYHVTSVWTKGVTPPANFTQGEDVFHAPYVANQGWYDITKTFNGKDDLLCGAATAGNMLHWWFDQNKDYIDRYLEEHPEKQKINFNGEQMFDVKEAIDTKNSQLDSKLFEYFKEKAFPYLSTKHLGVFPDLVLDMFINGYRLSLTNHGPTPVKEGSKDPRGGIFDAVFTRGDQSKLLTSRHDFKEKNLKEISDLIKKELTEGKALGLSHTYANVRINHVINLWGADFDSNGNLKAIYVTDSDSNASIGMKKYFVGVNSAGKVAISAKEIKEDNIGAQVLGLFTLSTGQDSWNQTN
B7: PRT-2 (protein)
chain: MANQEIRYSEVTPYHVTSVWTKGVTPPAKFTQGEDVFHAPYVANQGWYDITKTFNGKDDLLCGAATAGNMLHWWFDQNKEKIEAYLKKHPDKQKIMFGDQELLDVRKVINTKGDQTNSELFNYFRDKAFPGLSARRIGVMPDLVLDMFINGYYLNVYKTQTTDVNRTYQEKDRRGGIFDAVFTRGDQSKLLTSRHDFKEKNLKEISDLIKKELTEGKALGLSHTYANVRINHVINLWGADFDSNGNLKAIYVTDSDSNASIGMKKYFVGVNSAGKVAISAKEIKEDNIGAQVLGLFTLSTGQDSWNQTN
B8: PRT-546 (protein)
chain: MANQEIRYSEETPKTITSVWTKGVTPPTDFIKNEDVLHAPYIANQGWYDITKTFNGKDDLLCGAATAGNMLHWWFDQNKEEIENYLKKHPEKQKINFNGEQMFDVKEAIDTKDSQTDSALFEYFKDKAFPYLSTKHLGVFPDHVIDMFINGYRLSLTNHGPTPVKRGTKDPRGGIFDAVFTRGDQSKLLTSRHDFKEKTLNEISDLIKQELTEGKALGLSHTYANVRINHVINLWGADFNSEGNLEAIYVTDSDSNASIGMKKYYVGVNSAGKVAISAKEIEGDNIGAQVLGLFTLSTGQDIWEQTNLEHHHHHH
B9: PRT-592 (protein)
chain: B8 chain with K14S, K32Q, E81Q, D113N, S241A, E304N
B10: PRT-560 (protein)
chain: B8 chain with K32Y, E81Q, N84R, G167Q, N201K, N240D, S241A
B11: PRT-551 (protein)
chain: B8 chain with K14S, K32Q, S191A, S270A, E304N
B12: PRT-548 (protein)
chain: B8 chain with S186T, S191A, S270A
B13: PRT-593 (protein)
chain: B8 chain with K14S, K32Q, E81Q, S114H, S241A, E304N
B14: PRT-591 (protein)
chain: B8 chain with K14S, K32Q, E81Q, E83K, S241A, E304N
B15: PRT-279 (protein)
chain: MVTSVWTKGVTPPTDFIYGEDVLHAPYKAGQGWYDITKLFNGKDNLLCGAATAGNMLHWWFDQNKEQIENYLKKHPEKQKIIFNNQELFDLKAAIDTKDSQLDSKLFEYFLEKAFPYLSTKHLGVFPDHVIDMFINGYRLSLTNHGPTPVKRGSKDKRGGIFDAVFTRGVQSKLLTNRHDLKNKTLKEISDLIKQELTEGKALGISHTYANVRINHVINLWGADFDAEGNLEAIAVTDSDTNASIGMKKYFVGVNSSGKVAISAKEIEEDNIGAQVLGLFTLSTGQDIWNQTN
B16: PRT-536 (protein)
chain: MANQEIRYSGDSEWANKKVWVYGITPAEEGAWLYSTYYLPWKKEYGWYDCNKRNPTADGMMCWAASASNLMHWWIAQNKRYIDLYGDRYKGPDKINFNGEQMFDVKEYIDPLDKPQESDIFQCFIDKSFADLSTKHEAGKGDEGINWFIHGIIPSYPAHGPTPVKLRYPYNPAGYFKDVFPRGDGVVLGGNNGDFKELGKERFNETIKDALANKKGIGLSIGPVNVRKSHVETMWGAEFDENGDVSYIYMADNNDRWGVGCIRLQIVYVEGATYTCYKTEIIPSDRPIPINRLVTVELGEEYWKQTNLEHHHHHH

These results are taken from patent US20250027068.

Numbering of substitutions follows the chain as printed.

This data set concerns the target pooled human IgG.
In turn, B1 displayed an Enzyme Activity Endpoint Assay: Fab′2 of 6 ng/µL, an Enzyme Activity Endpoint Assay: Fc of 0 ng/µL, an Enzyme Activity Endpoint Assay: IgG of 1530 ng/µL and an Enzyme Activity Endpoint Assay: scIgG of 0 ng/µL.
B2 yielded an Enzyme Activity Endpoint Assay: Fab′2 of 87 ng/µL, an Enzyme Activity Endpoint Assay: Fc of 225 ng/µL, an Enzyme Activity Endpoint Assay: IgG of 74 ng/µL and an Enzyme Activity Endpoint Assay: scIgG of 687 ng/µL.
For B3 the same measures were 0 ng/µL, 0 ng/µL, 1490 ng/µL and 0 ng/µL.
Taken in the same sequence, the figures for B4 were 700 ng/µL, 392 ng/µL, 0 ng/µL and 0 ng/µL.
For B5 the same measures were 705 ng/µL, 380 ng/µL, 0 ng/µL and 238 ng/µL.
B6: the Enzyme Activity Endpoint Assay: Fab′2 is 24 ng/µL, the Enzyme Activity Endpoint Assay: Fc stood at 94 ng/µL, the Enzyme Activity Endpoint Assay: IgG came to 19 ng/µL and the Enzyme Activity Endpoint Assay: scIgG was determined as 50 ng/µL.
Taken in the same sequence, the figures for B7 were 47 ng/µL, 94 ng/µL, 21 ng/µL and 0 ng/µL.
The protein B8 returned an Enzyme Activity Endpoint Assay: Fab′2 of 722 ng/µL, an Enzyme Activity Endpoint Assay: Fc of 390 ng/µL, an Enzyme Activity Endpoint Assay: IgG of 0 ng/µL and an Enzyme Activity Endpoint Assay: scIgG of 236 ng/µL.
For B9 the same measures were 664 ng/µL, 359 ng/µL, 0 ng/µL and 0 ng/µL.
Taken in the same sequence, the figures for B10 were 210 ng/µL, 233 ng/µL, 41 ng/µL and 312 ng/µL.
For B11 the same measures were 444 ng/µL, 217 ng/µL, 0 ng/µL and 0 ng/µL.
In turn, B12 came in with an Enzyme Activity Endpoint Assay: Fab′2 of 727 ng/µL, an Enzyme Activity Endpoint Assay: Fc of 458 ng/µL, an Enzyme Activity Endpoint Assay: IgG of 0 ng/µL and an Enzyme Activity Endpoint Assay: scIgG of 0 ng/µL.
B13 had an Enzyme Activity Endpoint Assay: Fab′2 of 797 ng/µL, an Enzyme Activity Endpoint Assay: Fc of 396 ng/µL, an Enzyme Activity Endpoint Assay: IgG of 0 ng/µL and an Enzyme Activity Endpoint Assay: scIgG of 0 ng/µL.
Regarding B14, the Enzyme Activity Endpoint Assay: Fab′2 is 0 ng/µL, the Enzyme Activity Endpoint Assay: Fc was 34 ng/µL, the Enzyme Activity Endpoint Assay: IgG stood at 671 ng/µL and the Enzyme Activity Endpoint Assay: scIgG amounted to 0 ng/µL.
B15 had an Enzyme Activity Endpoint Assay: Fab′2 of 574 ng/µL, an Enzyme Activity Endpoint Assay: Fc of 359 ng/µL, an Enzyme Activity Endpoint Assay: IgG of 48 ng/µL and an Enzyme Activity Endpoint Assay: scIgG of 0 ng/µL.
For B16 the same measures were 0 ng/µL, 0 ng/µL, 1530 ng/µL and 0 ng/µL.
